Test results: paper PMC10786891, “Massively parallel profiling of RNA-targeting CRISPR-Cas13d”

T1: EsCas13d, nuclease-dead (Eubacterium siraeum, UniProt B0MS50, R295A;H300A;R849A;H854A)
T1 sequence: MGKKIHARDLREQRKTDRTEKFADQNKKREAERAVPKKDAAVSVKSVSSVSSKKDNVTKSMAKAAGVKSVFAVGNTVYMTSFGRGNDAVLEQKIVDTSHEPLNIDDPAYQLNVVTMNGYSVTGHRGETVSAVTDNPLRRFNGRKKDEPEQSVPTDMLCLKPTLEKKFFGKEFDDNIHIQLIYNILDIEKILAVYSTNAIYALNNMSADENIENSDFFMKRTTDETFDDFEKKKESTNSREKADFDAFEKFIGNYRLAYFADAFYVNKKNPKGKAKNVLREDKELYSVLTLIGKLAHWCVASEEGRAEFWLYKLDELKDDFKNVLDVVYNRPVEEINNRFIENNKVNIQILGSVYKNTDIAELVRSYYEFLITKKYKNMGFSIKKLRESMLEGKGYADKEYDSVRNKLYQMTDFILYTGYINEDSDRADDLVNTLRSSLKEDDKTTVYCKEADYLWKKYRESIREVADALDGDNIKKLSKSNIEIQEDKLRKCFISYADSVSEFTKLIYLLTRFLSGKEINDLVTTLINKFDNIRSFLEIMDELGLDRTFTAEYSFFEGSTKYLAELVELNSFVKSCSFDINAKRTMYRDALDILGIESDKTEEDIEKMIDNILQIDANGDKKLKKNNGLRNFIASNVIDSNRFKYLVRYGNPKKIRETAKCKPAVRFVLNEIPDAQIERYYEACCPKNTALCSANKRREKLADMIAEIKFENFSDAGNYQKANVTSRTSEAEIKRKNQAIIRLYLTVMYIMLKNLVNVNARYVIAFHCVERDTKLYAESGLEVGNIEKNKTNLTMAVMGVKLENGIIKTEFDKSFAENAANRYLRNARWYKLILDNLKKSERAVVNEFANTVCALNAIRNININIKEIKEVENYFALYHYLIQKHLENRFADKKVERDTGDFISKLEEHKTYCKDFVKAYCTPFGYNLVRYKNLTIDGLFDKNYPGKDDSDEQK

B1: target 1 complement block 5-11 (mixed)
RNA 1: CACCCGUGCAAAAAUGCAGGGGUCUAAAACUGAGCGGAUAACCUCUCUAUGG
RNA 2: GGGAAUGGAUCCACAUCUACGAAUUCGUACCAUAGAGAGGAAUAGGCCUCACCGAGAUCGGAAGAGCACACGU
B2: target 1 insG 3' of 16,insG 3' of 7 (mixed)
RNA 1: CACCCGUGCAAAAAUGCAGGGGUCUAAAACUGAGCGGAUAACCUCUCUAUGG
RNA 2: GGGAAUGGAUCCACAUCUACGAAUUCGUACCAUAGAGGAGGUUAUCGCGCUCACCGAGAUCGGAAGAGCACACGU
B3: target 1 insU 3' of 9,insU 3' of 9 (mixed)
RNA 1: CACCCGUGCAAAAAUGCAGGGGUCUAAAACUGAGCGGAUAACCUCUCUAUGG
RNA 2: GGGAAUGGAUCCACAUCUACGAAUUCGUACCAUAGAGAGGUUAUUUCCGCUCACCGAGAUCGGAAGAGCACACGU
B4: target 1 G12A,U19A (mixed)
RNA 1: CACCCGUGCAAAAAUGCAGGGGUCUAAAACUGAGCGGAUAACCUCUCUAUGG
RNA 2: GGGAAUGGAUCCACAUCUACGAAUUCGUACCAAAGAGAGAUUAUCCGCUCACCGAGAUCGGAAGAGCACACGU
B5: target 1 A9G,G13A (mixed)
RNA 1: CACCCGUGCAAAAAUGCAGGGGUCUAAAACUGAGCGGAUAACCUCUCUAUGG
RNA 2: GGGAAUGGAUCCACAUCUACGAAUUCGUACCAUAGAGAAGUUGUCCGCUCACCGAGAUCGGAAGAGCACACGU
B6: target 1 G5U,U10G (mixed)
RNA 1: CACCCGUGCAAAAAUGCAGGGGUCUAAAACUGAGCGGAUAACCUCUCUAUGG
RNA 2: GGGAAUGGAUCCACAUCUACGAAUUCGUACCAUAGAGAGGUGAUCCUCUCACCGAGAUCGGAAGAGCACACGU
B7: target 1 insA 3' of 5,insG 3' of 3 (mixed)
RNA 1: CACCCGUGCAAAAAUGCAGGGGUCUAAAACUGAGCGGAUAACCUCUCUAUGG
RNA 2: GGGAAUGGAUCCACAUCUACGAAUUCGUACCAUAGAGAGGUUAUCCGACUGCACCGAGAUCGGAAGAGCACACGU
B8: target 1 insU 3' of 7,insU 3' of 6 (mixed)
RNA 1: CACCCGUGCAAAAAUGCAGGGGUCUAAAACUGAGCGGAUAACCUCUCUAUGG
RNA 2: GGGAAUGGAUCCACAUCUACGAAUUCGUACCAUAGAGAGGUUAUCUCUGCUCACCGAGAUCGGAAGAGCACACGU
B9: target 1 C4U,U11G (mixed)
RNA 1: CACCCGUGCAAAAAUGCAGGGGUCUAAAACUGAGCGGAUAACCUCUCUAUGG
RNA 2: GGGAAUGGAUCCACAUCUACGAAUUCGUACCAUAGAGAGGGUAUCCGUUCACCGAGAUCGGAAGAGCACACGU
B10: target 1 C7A,A20C (mixed)
RNA 1: CACCCGUGCAAAAAUGCAGGGGUCUAAAACUGAGCGGAUAACCUCUCUAUGG
RNA 2: GGGAAUGGAUCCACAUCUACGAAUUCGUACCCUAGAGAGGUUAUACGCUCACCGAGAUCGGAAGAGCACACGU
B11: target 1 A1G,G12A (mixed)
RNA 1: CACCCGUGCAAAAAUGCAGGGGUCUAAAACUGAGCGGAUAACCUCUCUAUGG
RNA 2: GGGAAUGGAUCCACAUCUACGAAUUCGUACCAUAGAGAGAUUAUCCGCUCGCCGAGAUCGGAAGAGCACACGU
B12: target 1 C7A,U19G (mixed)
RNA 1: CACCCGUGCAAAAAUGCAGGGGUCUAAAACUGAGCGGAUAACCUCUCUAUGG
RNA 2: GGGAAUGGAUCCACAUCUACGAAUUCGUACCAGAGAGAGGUUAUACGCUCACCGAGAUCGGAAGAGCACACGU
B13: target 1 insC 3' of 3,insC 3' of 3 (mixed)
RNA 1: CACCCGUGCAAAAAUGCAGGGGUCUAAAACUGAGCGGAUAACCUCUCUAUGG
RNA 2: GGGAAUGGAUCCACAUCUACGAAUUCGUACCAUAGAGAGGUUAUCCGCUCCCACCGAGAUCGGAAGAGCACACGU
B14: target 1 insG 3' of 18,insA 3' of 7 (mixed)
RNA 1: CACCCGUGCAAAAAUGCAGGGGUCUAAAACUGAGCGGAUAACCUCUCUAUGG
RNA 2: GGGAAUGGAUCCACAUCUACGAAUUCGUACCAUAGGAGAGGUUAUCACGCUCACCGAGAUCGGAAGAGCACACGU
B15: target 1 A1U,G12A (mixed)
RNA 1: CACCCGUGCAAAAAUGCAGGGGUCUAAAACUGAGCGGAUAACCUCUCUAUGG
RNA 2: GGGAAUGGAUCCACAUCUACGAAUUCGUACCAUAGAGAGAUUAUCCGCUCUCCGAGAUCGGAAGAGCACACGU
B16: target 1 insC 3' of 17,insA 3' of 8 (mixed)
RNA 1: CACCCGUGCAAAAAUGCAGGGGUCUAAAACUGAGCGGAUAACCUCUCUAUGG
RNA 2: GGGAAUGGAUCCACAUCUACGAAUUCGUACCAUAGCAGAGGUUAUACCGCUCACCGAGAUCGGAAGAGCACACGU
B17: target 1 C2A,G17C (mixed)
RNA 1: CACCCGUGCAAAAAUGCAGGGGUCUAAAACUGAGCGGAUAACCUCUCUAUGG
RNA 2: GGGAAUGGAUCCACAUCUACGAAUUCGUACCAUACAGAGGUUAUCCGCUAACCGAGAUCGGAAGAGCACACGU
B18: target 1 C4A,A9G (mixed)
RNA 1: CACCCGUGCAAAAAUGCAGGGGUCUAAAACUGAGCGGAUAACCUCUCUAUGG
RNA 2: GGGAAUGGAUCCACAUCUACGAAUUCGUACCAUAGAGAGGUUGUCCGAUCACCGAGAUCGGAAGAGCACACGU
B19: target 1 G12A (mixed)
RNA 1: CACCCGUGCAAAAAUGCAGGGGUCUAAAACUGAGCGGAUAACCUCUCUAUGG
RNA 2: GGGAAUGGAUCCACAUCUACGAAUUCGUACCAUAGAGAGAUUAUCCGCUCACCGAGAUCGGAAGAGCACACGU
B20: target 1 insC 3' of 14,insU 3' of 12 (mixed)
RNA 1: CACCCGUGCAAAAAUGCAGGGGUCUAAAACUGAGCGGAUAACCUCUCUAUGG
RNA 2: GGGAAUGGAUCCACAUCUACGAAUUCGUACCAUAGAGACGGUUUAUCCGCUCACCGAGAUCGGAAGAGCACACGU
B21: target 1 C6G,G15U (mixed)
RNA 1: CACCCGUGCAAAAAUGCAGGGGUCUAAAACUGAGCGGAUAACCUCUCUAUGG
RNA 2: GGGAAUGGAUCCACAUCUACGAAUUCGUACCAUAGAUAGGUUAUCGGCUCACCGAGAUCGGAAGAGCACACGU
B22: target 1 insA 3' of 15 (mixed)
RNA 1: CACCCGUGCAAAAAUGCAGGGGUCUAAAACUGAGCGGAUAACCUCUCUAUGG
RNA 2: GGGAAUGGAUCCACAUCUACGAAUUCGUACCAUAGAGAAGGUUAUCCGCUCACCGAGAUCGGAAGAGCACACGU
B23: target 1 insG 3' of 8,insU 3' of 6 (mixed)
RNA 1: CACCCGUGCAAAAAUGCAGGGGUCUAAAACUGAGCGGAUAACCUCUCUAUGG
RNA 2: GGGAAUGGAUCCACAUCUACGAAUUCGUACCAUAGAGAGGUUAUGCCUGCUCACCGAGAUCGGAAGAGCACACGU
B24: target 1 G13U,A20C (mixed)
RNA 1: CACCCGUGCAAAAAUGCAGGGGUCUAAAACUGAGCGGAUAACCUCUCUAUGG
RNA 2: GGGAAUGGAUCCACAUCUACGAAUUCGUACCCUAGAGAUGUUAUCCGCUCACCGAGAUCGGAAGAGCACACGU
B25: target 1 C6U,U10G (mixed)
RNA 1: CACCCGUGCAAAAAUGCAGGGGUCUAAAACUGAGCGGAUAACCUCUCUAUGG
RNA 2: GGGAAUGGAUCCACAUCUACGAAUUCGUACCAUAGAGAGGUGAUCUGCUCACCGAGAUCGGAAGAGCACACGU
B26: target 1 insU 3' of 21,insU 3' of 14 (mixed)
RNA 1: CACCCGUGCAAAAAUGCAGGGGUCUAAAACUGAGCGGAUAACCUCUCUAUGG
RNA 2: GGGAAUGGAUCCACAUCUACGAAUUCGUACCUAUAGAGAUGGUUAUCCGCUCACCGAGAUCGGAAGAGCACACGU
B27: target 1 insU 3' of 15,insC 3' of 15 (mixed)
RNA 1: CACCCGUGCAAAAAUGCAGGGGUCUAAAACUGAGCGGAUAACCUCUCUAUGG
RNA 2: GGGAAUGGAUCCACAUCUACGAAUUCGUACCAUAGAGUCAGGUUAUCCGCUCACCGAGAUCGGAAGAGCACACGU
B28: target 1 insG 3' of 10,insA 3' of 6 (mixed)
RNA 1: CACCCGUGCAAAAAUGCAGGGGUCUAAAACUGAGCGGAUAACCUCUCUAUGG
RNA 2: GGGAAUGGAUCCACAUCUACGAAUUCGUACCAUAGAGAGGUUGAUCCAGCUCACCGAGAUCGGAAGAGCACACGU

These binders were tested against T1, EsCas13d, nuclease-dead (assay: crRNA (strand 1, pre-loaded); Mg2+; 40 mM Tris-HCl pH 7.5, 150 mM NaCl, 6 mM MgCl2, 1 mM DTT, 0.1% Tween-20, 0.2 mg/ml BSA; 25 C; 10 min per concentration, then washed). Settings: tags: His6-TwinStrep-SUMO cleaved; N-terminal SNAP kept (SNAP-Surface 488); label: 3' end held by stalled T7 RNA polymerase.
Work on B1 yielded a Kd of 19.2 ± 0.6 nM.
Binder B2 has a Kd of 16.5 ± 1.7 nM.
Binder B3 has a Kd of 18.8 ± 1 nM.
B4 was tested, and the Kd was 51 ± 11 nM.
B5 gave a Kd of 8.4 ± 0.4 nM.
Work on B6 yielded a Kd of 57 ± 5 nM.
B7 was tested, and the Kd was 5.94 ± 0.29 nM.
With B8 the Kd was 55 ± 4 nM.
Binder B9 has a Kd of 21 ± 4 nM.
In the case of B10, the Kd is reported as 61 ± 22 nM.
B11 was tested, and the Kd was 5.9 ± 0.5 nM.
For B12, the Kd was 55 ± 6 nM.
B13 showed a Kd of 43 ± 15 nM.
B14 was tested, and the Kd was 43 ± 4 nM.
B15 was tested, and the Kd was 5.2 ± 0.5 nM.
Binder B16 has a Kd of 52 ± 7 nM.
Binder B17 has a Kd of 57 ± 5 nM.
B18 gave a Kd of 3.18 ± 0.24 nM.
With B19 the Kd was 5.5 ± 0.4 nM.
B20 showed a Kd of 43 ± 9 nM.
B21 gave a Kd of 36 ± 5 nM.
B22 gave a Kd of 5.9 ± 0.6 nM.
Work on B23 yielded a Kd of 16.5 ± 0.6 nM.
B24 was tested, and the Kd was ~90 nM.
B25 showed a Kd of 15.7 ± 1.1 nM.
Work on B26 yielded a Kd of 45 ± 9 nM.
In the case of B27, the Kd is reported as 28.4 ± 3.2 nM.
With B28 the Kd was 41 ± 6 nM.
